One assay has as its target VAMP2 (UniProt P63044). The assay is described as follows: GST pull-down, anti-Munc18c and anti-pTyr blots. The settings on record: reference: Munc18c incubated without CIRK; sites Y521.
For assay [1], the target named is Syntaxin 4 (Sx4) cytosolic domain, 1-273 (UniProt P70452). The assay is described as follows: GST pull-down, anti-Munc18c and anti-pTyr blots. Conditions: reference: Munc18c incubated without CIRK; sites Y521.
The next assay addresses CIRK-treated Munc18c. As to the kind of experiment: GST pull-down, anti-Munc18c immunoblot quantification. The settings on record: 1 μg GST fusion on glutathione-Sepharose, 1 μg Munc18c pre-treated with 370 ng CIRK for 150 min, binding buffer, overnight, 4°C, n=3, read off a plot, scale: % of control Munc18c bound to wild-type Sx4. A general note: Immunoblotting shows a protein as a band on a membrane.

Sx4-GST, wild-type Syntaxin 4 cytosolic domain (residues 1-273), sequence (P70452 whole entry L173A/E174A, looked up, the tested form may be a part): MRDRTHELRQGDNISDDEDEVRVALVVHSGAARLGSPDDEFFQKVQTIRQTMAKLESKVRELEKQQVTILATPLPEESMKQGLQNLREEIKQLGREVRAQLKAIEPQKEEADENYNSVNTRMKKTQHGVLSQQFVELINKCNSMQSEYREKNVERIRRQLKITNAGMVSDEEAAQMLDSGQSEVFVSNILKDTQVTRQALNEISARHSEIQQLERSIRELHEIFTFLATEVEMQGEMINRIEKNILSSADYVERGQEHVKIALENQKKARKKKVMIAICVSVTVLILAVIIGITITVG
Sx4 lacking the N-terminal 36 amino acids (N36Δ), GST fusion, sequence (P70452 whole entry, looked up, stated change not applied, the tested form may be a part): as the sequence (P70452 whole entry L173A/E174A, looked up, the tested form may be a part) above, with A173L, A174E counted along it

As to “Munc18c (from UniProt Q60770) CIRK-treated Munc18c (pTyr form absent from pull-down)”, in the assay with VAMP2, the “binding against the reference” value is given as “weaker”.
In assay [1], “Munc18c (from UniProt Q60770) Munc18c pre-treated with CIRK” returned an other: percent decrease of 30%.
For “Sx4 lacking the N-terminal 36 amino acids (N36Δ), GST fusion (from UniProt P70452) L173A; E174A”, in the assay with CIRK-treated Munc18c (parent: est. 9), the other: % Munc18c bound relative to wild-type Sx4 was 10.
Turning to “Sx4-GST, wild-type Syntaxin 4 cytosolic domain (residues 1-273) (from UniProt P70452) L173A; E174A”, in the assay with CIRK-treated Munc18c (parent: est. 71), the other: % Munc18c bound relative to wild-type Sx4 worked out at 64.

(Values after PMC3103433 (2011).)
